Data on 2 molecules can be found in paper PMC9734383 (Nature Communications, 2022).

One test concerns the target H3 HA (Influenza A virus H3N2, probably A/Hong …, UniProt Q91MA7, strain). Nature of the test: SEC. The following applies: both partners purified.
Test [1] addresses H3 HA (recombinant HA of the panel) (Influenza A virus H3N2, probably A/Hong …, UniProt Q91MA7, biotinylated (in the BLI assay)). Nature of the test: BLI. The conditions noted are these: both partners purified.

B1: PN-SIA28 Fab (Fab, V domains shown)
VH: QVQLVESGGGVVQPGRSLRLSCAASGFPFSSYGMHWVRQAPGKGLEWVAGVSYDGSYKYYADSVKGRFTISRDSSKSTLYLQMNSLRPEDTAVYYCARPSAIFGIYIILNGLDVWGQGTTVTVSS
VL: EIVLTQSPSSVSASVGDRVTITCRATQGISSWLAWYQQKPGKPPKLLIFGASSLQSGVPSRFSGSGSGTDFTLTISSLQPEDFATYFCQQAHSFPLTFGGGTKVEIK
As for B1, the binding result with H3 HA is on record as “binds”.

B2: PN-SIA28 Fab (Fab, V domains shown)
VH: B1 VH
VL: B1 VL
notes: also called PN-SIA28 Fab fragment
B2: the binding result in test [1] was “binds”.
